Source: publication PMC2749490

Tested on: CC(C)C[C@H](NC(=O)[C@H](CO)NC(=O)[C@H](C)NC(=O)[C@H](CCCNC(=N)N)NC(=O)[C@H](CCCNC(=N)N)NC(=O)[C@@H](N)CC(C)C)C(=O)NCC(=O)O
Assay type: biochemical
Settings: other: from the noncompetitive inhibition model fit; pH 7.4

PKA (Homo sapiens)
Km: 12 µM
